Measured values as given in patent US11697680B2, “Anti-GP73 antibodies and immunoconjugates” (CUREAB GMBH, priority 2016, dated 2023).
“Also recorded” adds a separate entry of the source.

Assays:
peptide AA 36-55 of GP73 [1] = biological target: T1, peptide AA 36-55 of GP73 (Homo sapiens, UniProt Q8NBJ4); assay: pH dependent peptide ELISA; type: binding; details: pH range of 7.4 to 5.4
Method: A peptide ELISA was performed to test for pH dependency of binding to peptide AA 36-55 of GP73.
(§1) ELISA was carried out in 96 well plates coated overnight with biotinylated peptide and blocked with 2% gelatine. Horse radish peroxidase labeled antibodies G2-1 (G2-1-HRP) or G2-2 (G2-2-HRP) were applied and incubated for 1.5 hours. For competition testing non labeled G2-1 or G2-2 was added at high concentration. For pH dependent binding the antibodies were applied in phosphate buffer pH 4.4, 5.4, 6.4 or 7.4. After extensive washing a chromogenic substrate (TMB Amersham) was added to detect peroxidase. The reaction was stopped and absorbance was read at 450 nm.

HuH7 cells = assay: Internalization of pHrodo Green labeled antibodies after pre-incubation with conditioned media containing soluble GP73; type: cell-based, human; details: 10 ug/ml pHrodo Green labeled antibody pre-incubated over night, 24 h at 37° C.
Method: Antibody internalization was measured by FACS using the pH-sensitive dye pHrodo Green coupled to each antibody. […] The internalization of G2-2 that binds to rGP73 is not altered as described in Example 6.
Labeled antibodies were purified by size exclusion (40K MWCO). A non binding Isotype Antibody that was not labeled with pHrodo® Green STP Ester (Iso.) was used as control for background fluorescence. 10 ug/ml of each antibody was pre-incubated over night at 4° C. with either fresh culture media or conditioned media. As conditioned media served either supernatant from HEK 293 or HEK 293 GP73-myc cells cultured for 72 hours, that was dialyzed (10 k MWCO) against 1 L fresh media each. To confirm the presence of secreted soluble GP73 after dialysis supernatants were analysed by Western Blot using an anti-myc antibody. 300 ul/well of each pre-incubated antibody was given to 0.6×10^6HuH7 cells growing in 24 well plates for 24 h at 37° C. and 5% CO2. Cells were washed and analysed by FACS.

[2] = biological target: T2, Furin cleavage of recombinant GP73-HIS (Homo sapiens, UniProt Q8NBJ4); assay: Furin cleavage of GP73-HIS depending on antibody binding (capture ELISA); type: biochemical; details: 3 U and 1.5 U of Furin; 2 hours at 30° C.
T2 construct: purchased Biolegend
T2 sequence (Q8NBJ4 36-401 limits assumed): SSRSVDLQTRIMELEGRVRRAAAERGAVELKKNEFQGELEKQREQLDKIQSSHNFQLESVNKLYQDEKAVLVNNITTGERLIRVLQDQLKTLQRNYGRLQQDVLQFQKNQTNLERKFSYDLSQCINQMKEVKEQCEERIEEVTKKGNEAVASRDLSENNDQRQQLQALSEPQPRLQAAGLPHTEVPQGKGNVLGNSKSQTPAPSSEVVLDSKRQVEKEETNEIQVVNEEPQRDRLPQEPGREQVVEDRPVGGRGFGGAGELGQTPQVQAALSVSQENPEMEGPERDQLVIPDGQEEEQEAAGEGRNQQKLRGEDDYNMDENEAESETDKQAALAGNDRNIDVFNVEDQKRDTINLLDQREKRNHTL
Excerpt: Measurements of Furin cleavage of GP73 using a range from 0 units to 3 units of Furin are depicted.
Testing of Furin cleavage exploits the fact that antibodies G2-1 and G2-2 bind GP73 N-terminal of or at the furin cleavage site 56R whereas recombinant GP73 with C-terminal HIS tag (GP73-HIS) is detected by anti HIS antibody at the C-terminus of GP73. Plate bound anti human IgG can capture G2-1 or G2-2, which binds GP73-HIS. If furin cleavage occurs in a setting where G2-1 or G2-2 have already bound to GP73-HIS, only N-terminal part of GP73 will reside at the G2 antibodies. In contrast, if furin cleavage is hindered by G2 antibodies, GP73-HIS can be detected by an anti HIS antibody.
Furin cleavage was carried out in 1.5 ml tubes. To test if G2 antibodies can hinder furin cleavage recombinant GOLPH-HIS protein (Biolegend) and G2-2 or G2-1 was incubated for 2 hours in 100 mM HEPES and 1 mM CaCl2 buffer pH 7.5 to allow antibody binding to GP73. […]
From each reaction 2×100 ul were transferred to wells of a 96 well plate that had been coated over night with anti human IgG and was blocked with 1% gelatine in PBS. After one hour incubation at room temperature the plate was washed, incubated with anti HIS-hrp antibody for one hour, washed again, incubated with a chromogenic substrate (TMB Amersham) to detect peroxidase, stopped and read at 450 nm.

peptide AA 36-55 of GP73 [3] = biological target: T1, peptide AA 36-55 of GP73; assay: Competition peptide ELISA with HRP-labeled antibodies; type: binding; details: unlabeled competing antibody at high concentration; binding antibody G2-1-HRP
Method: A peptide ELISA was performed using horse radish peroxidase labeled G2-1 (G2-1-HRP) or G2-2 (G2-2-HRP) as binding antibodies and G2-1 or G2-2 as competing antibodies. […] Binding to peptide AA 36-55 of GP73 served as positive control (filled circle), negative control was binding to an unrelated peptide (filled diamond) as described in Example 5.
as §1

B1: G2-2: scFv clone with human IgG1 heavy and human Igk light constant regions; VH/VL SEQ ID NO: 2 and 3; binds rGP73 AA 36-55 (antibody, V domains shown)
VH: EVQLLQSGGGVVQPGRSLRLSCAASGFTFSSYGMSWVRQAPGKGLEWVAVISYDGSNKYYADSVKGRFTISRDNSKNTLYLQMNSLRAEDTAVYYCAREGSAGMDVWGQGTTVTVSS
VL: DIQMTQPSSLSASPGASASLTCTLRSDISVGFHRIYWYQQKPGSPPQYLLRYKSDSDKQQGSGVPSRFSGSKDASANAGILLISGLQSDDEADYYCVIWHTSGVVFGGGTKVEIK
modifications: human IgG1 and Igk constant regions not cited; G2-2 heavy chain variable region (VH); G2-2 light chain variable region (VL)
- pH dependency of binding to peptide AA 36-55 of GP73 (peptide AA 36-55 of GP73 [1]): Stable binding
- effect of conditioned media containing soluble GP73 on antibody internalization / cell surface binding (HuH7 cells): unaffected; also recorded: not altered
- Furin cleavage of GP73 after preincubation with antibody [2]: significant reduction in Furin cleavage
- competition with G2-1-HRP for peptide binding (peptide AA 36-55 of GP73 [3]): Competitive inhibition
